Assay results taken from US20120003180A1.

Key:
[1] = target: α5β1 integrin protein, covalently immobilised on the optical biosensor cuvette; assay: optical biosensor (IAsys), α5β1 immobilised, LG3 free in solution
[2] = target: α5β1 integrin protein, covalently immobilised on the optical biosensor cuvette; assay: optical biosensor (IAsys), α5β1 immobilised, LG3 free in solution; Kd from Koff/Kon
[3] = target: α5β1 integrin protein, covalently immobilised on the optical biosensor cuvette; assay: optical biosensor (IAsys), α5β1 immobilised
[4] = target: α5β1 integrin protein, covalently immobilised on the optical biosensor cuvette; assay: optical biosensor (IAsys), α5β1 immobilised, D3904A DV free in solution
[5] = target: α5β1 integrin protein, covalently immobilised on the optical biosensor cuvette; assay: optical biosensor (IAsys), α5β1 immobilised, D3904A DV free in solution; Kd from Koff/Kon

Row | Substance | koff [1] | Kd [2] | affinity relative to non-mutated DV (fold of the affinity of non-mutated DV) [3] | koff [4] | Kd [5]
1 | LG3, the C-terminal fragment of perlecan Domain V, with C-terminal 6×His tag (from UniProt P98160 4197-4391) (ligand) | 1.7 s⁻¹ | 1000 µM |  |  | 
2 | D3904A DV (perlecan Domain V with DGR mutated to AGR), C-terminal 6×His tag (from UniProt P98160 3687-4391) (ligand) |  |  | < 0.5 | 0.22 s⁻¹ | 0.37 µM
